Three molecules from paper PMC8074105, “Bacillus subtilis PcrA Helicase Removes Trafficking Barriers” (Cells, 2021) can be followed below.

The target of data set [1] is T1, PcrA (Bacillus subtilis, UniProt O34580 1-739).
T1 sequence: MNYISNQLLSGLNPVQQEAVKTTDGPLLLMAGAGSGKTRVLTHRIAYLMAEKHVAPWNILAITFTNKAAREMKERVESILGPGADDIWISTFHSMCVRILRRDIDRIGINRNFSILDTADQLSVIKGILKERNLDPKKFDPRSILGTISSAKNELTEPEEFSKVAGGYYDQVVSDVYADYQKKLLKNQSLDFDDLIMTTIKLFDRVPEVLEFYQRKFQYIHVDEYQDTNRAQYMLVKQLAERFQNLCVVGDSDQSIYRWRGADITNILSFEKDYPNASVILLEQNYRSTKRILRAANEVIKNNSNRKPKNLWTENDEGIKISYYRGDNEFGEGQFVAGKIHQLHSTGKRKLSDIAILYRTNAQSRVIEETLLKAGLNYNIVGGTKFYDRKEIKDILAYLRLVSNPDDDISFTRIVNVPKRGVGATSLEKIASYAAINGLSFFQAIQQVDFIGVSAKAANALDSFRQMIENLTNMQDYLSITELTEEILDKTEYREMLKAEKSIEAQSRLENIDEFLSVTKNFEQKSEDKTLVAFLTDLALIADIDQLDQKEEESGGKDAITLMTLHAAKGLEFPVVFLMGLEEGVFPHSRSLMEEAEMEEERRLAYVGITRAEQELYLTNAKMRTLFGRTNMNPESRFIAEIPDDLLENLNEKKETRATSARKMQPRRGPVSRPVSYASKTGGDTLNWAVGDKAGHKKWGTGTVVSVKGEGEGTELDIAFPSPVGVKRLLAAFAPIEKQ
As to the kind of experiment: EMSA; 2.5 mM ATPgS, 3 mM Mg2+; four complexes; 20 mM Tris-HCl pH 7.5, 50 mM NaCl, 3 mM MgCl2, 4 mM DTT, 0.05 mg/mL BSA, 5% glycerol, 2.5 mM ATPgS, 0.1 nM 32P-labelled nucleic acid, 15 min, 37 C. The note with it: protein: recombinant; tags: His6 removed (TAGZyme); label: 32P.

Substrate in data set [2]: Nc1ncnc2c1ncn2[C@@H]1O[C@H](COP(=O)(O)OP(=O)(O)OP(=O)(O)O)[C@@H](O)[C@H]1O
Description: NADH-coupled (pyruvate kinase / lactate dehydrogenase) spectrophotometric ATPase assay, Michaelis-Menten fit. The note with it: 15 nM PcrA, ATP 0.06 to 10 mM, ssDNA-dependent assay (circular pGEM3 Zf(+) ssDNA, 10 µM in nt, inferred from context), 10 mM Mg acetate, 80 mM NaCl, pH 7.5, 37 °C. Format: biochemical, Bacillus subtilis.

Data set [3] concerns the target T1, PcrA. Description: EMSA; 2.5 mM ATPgS, 3 mM Mg2+; apparent; unstable complexes; 20 mM Tris-HCl pH 7.5, 50 mM NaCl, 3 mM MgCl2, 4 mM DTT, 0.05 mg/mL BSA, 5% glycerol, 2.5 mM ATPgS, 0.1 nM 32P-labelled nucleic acid, 15 min, 37 C. The note with it: protein: recombinant; tags: His6 removed (TAGZyme); label: 32P.

B1: 38-nt ssDNA (SM44D) (ssDNA)
DNA: GCTCTGATGCCGCATAGTTAAGCCAGCCCCGACACCCG
Consider B1, for which, in data set [1], the binding result is “binds”.

B2: PcrA (Bacillus subtilis subsp. subtilis str. 168) (protein)
chain: T1 sequence
notes: full-length, His6-tagged from plasmid pCB1229 (pQE1) in E. coli M15 (pREP4), His-tag removed with TAGZyme; amounts as monomers
By Km is commonly meant the concentration of substrate that gives half-maximal velocity. Take B2: the Km in data set [2] came out at 1500 ± 300 µM.

B3: 38-nt RNA (SM44R) (ssRNA)
RNA: GCUCUGAUGCCGCAUAGUUAAGCCAGCCCCGACACCCG
For the molecule B3, in data set [3], the Kd was about 35 nM.
